Source: patent publication US20170275356A1 (Eli Lilly, published 2017)
Values joined by “and” are separate entries in the source; they are usually repeats but may differ in a detail not shown here. Equal entries are not always repeated.

Tests used:
[1] = target: T1, human IL-27 (human, UniProt Q8NEV9 29-243; Q14213 21-229); test: SPR (BIAcore), Antibody I captured on Protein A, 37 °C
T1 construct: subunit make-up is from general knowledge
T1 sequence (looked up) 1: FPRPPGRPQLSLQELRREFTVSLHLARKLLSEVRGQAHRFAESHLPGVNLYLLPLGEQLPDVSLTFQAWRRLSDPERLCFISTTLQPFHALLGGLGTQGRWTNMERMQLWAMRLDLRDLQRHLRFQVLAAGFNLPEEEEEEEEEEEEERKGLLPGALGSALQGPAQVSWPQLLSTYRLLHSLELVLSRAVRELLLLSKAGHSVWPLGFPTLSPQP
T1 sequence (looked up) 2: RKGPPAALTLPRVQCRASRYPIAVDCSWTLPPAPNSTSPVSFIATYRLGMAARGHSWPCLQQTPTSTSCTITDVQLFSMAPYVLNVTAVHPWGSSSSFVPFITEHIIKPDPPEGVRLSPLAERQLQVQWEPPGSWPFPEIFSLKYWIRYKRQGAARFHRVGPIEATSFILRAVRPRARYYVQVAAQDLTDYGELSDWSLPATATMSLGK
Procedure: (§1) Antibody affinity (KD) to human, cynomolgus monkey or rabbit IL-23 is determined using a BIAcore Biosensor 2000 and BIAevaluation software with a 1:1 binding with mass transfer model. A capture protein (Protein A, Calbiochem) is coupled via free amine groups to carboxyl groups on flow cells 1 and 2 of a CM4 biosensor chip using a mixture of N-ethyl-N-(dimethylaminopropyl)-carbodiimide (EDC) and N-hydroxysuccinimide (NHS). Flow cells are monitored with a flow rate of 80 μL/minute using a buffer containing 0.01 M HEPES, pH 7.4, 150 mM NaCl, 0.005% surfactant P20. Antibody I is captured on flow cell 2 to yield a total of 40 to 60 response units (RU). Multiple cycles of increasing concentrations of IL-23 are then injected over flow cells 1 and 2 (0.62 nM to 30 nM for human and monkey IL-23 and 30 nM to 240 nM for rabbit IL-23) followed by a regeneration step using glycine-HCl (pH 1.5) between each cycle. Flow cell 1 is used as a control to monitor non-specific binding of IL-23 and the data reflects flow cell 2 minus flow cell 1. Each cycle includes an antibody capture step followed by injection of IL-23 at one concentration with a 30 minute dissociation period, then regeneration. Two cycles where buffer is injected in place of IL-23, serve as a control for baseline subtraction and correct for drift associated with the dissociation of Antibody I from the protein A surface. Affinity is measured at 37 ° C. The assay is performed 2 times with human, monkey or rabbit IL-23. Antibody I is tested 2 times each with mouse IL-23 at 333 nM, rat IL-23 at 200 nM, human IL-12 at 333 nM, human IL-27 at 500 nM or human IL-35 at 833 nM.
(§2) Antibody I produces a concentration-dependent binding response with human, cynomolgus monkey, and rabbit IL-23 using this method. Saturation of binding of IL-23 is attained at a concentration of 30 nM (human and monkey) and 240 nM (rabbit) using […] of Antibody I captured on the chip surface.

[2] = target: T2, human IL-35 (human, UniProt P29459 23-219; Q14213 21-229, limits assumed); test: as above
T2 construct: subunit make-up is from general knowledge
T2 sequence (looked up) 1: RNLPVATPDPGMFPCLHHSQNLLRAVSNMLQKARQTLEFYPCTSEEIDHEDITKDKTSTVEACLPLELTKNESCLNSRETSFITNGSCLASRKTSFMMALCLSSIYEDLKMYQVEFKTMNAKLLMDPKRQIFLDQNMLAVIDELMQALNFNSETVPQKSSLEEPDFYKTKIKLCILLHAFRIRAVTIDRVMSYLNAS
T2 sequence (looked up) 2: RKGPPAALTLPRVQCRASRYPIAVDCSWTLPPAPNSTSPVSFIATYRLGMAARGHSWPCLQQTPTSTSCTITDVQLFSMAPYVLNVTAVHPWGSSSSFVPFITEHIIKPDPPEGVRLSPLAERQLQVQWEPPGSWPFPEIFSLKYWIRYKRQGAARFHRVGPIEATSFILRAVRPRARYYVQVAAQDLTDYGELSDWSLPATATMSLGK
Procedure: as §1, §2

[3] = target: T3, human IL-12 (human, UniProt P29459 23-219; P29460 23-328); test: as above
T3 construct: construct not described
T3 sequence (looked up) 1: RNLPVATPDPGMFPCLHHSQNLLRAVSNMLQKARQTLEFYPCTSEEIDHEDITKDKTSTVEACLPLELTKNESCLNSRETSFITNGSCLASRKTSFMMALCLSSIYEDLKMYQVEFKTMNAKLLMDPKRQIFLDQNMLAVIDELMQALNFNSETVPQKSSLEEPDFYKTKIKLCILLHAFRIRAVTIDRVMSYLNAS
T3 sequence (looked up) 2: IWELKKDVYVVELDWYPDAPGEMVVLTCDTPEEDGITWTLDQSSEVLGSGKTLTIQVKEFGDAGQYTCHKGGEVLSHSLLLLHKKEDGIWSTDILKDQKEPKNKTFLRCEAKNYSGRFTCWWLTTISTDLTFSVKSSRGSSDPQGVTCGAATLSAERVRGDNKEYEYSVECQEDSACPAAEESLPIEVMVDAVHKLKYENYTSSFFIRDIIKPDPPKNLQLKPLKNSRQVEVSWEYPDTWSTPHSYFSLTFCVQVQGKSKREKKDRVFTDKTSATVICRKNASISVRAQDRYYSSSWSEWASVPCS
Procedure: as §1, §2

[4] = target: T4, mouse IL-23 (mouse, UniProt Q9EQ14 22-196; P43432 23-335); test: as above
T4 construct: Construct not described
T4 sequence (looked up) 1: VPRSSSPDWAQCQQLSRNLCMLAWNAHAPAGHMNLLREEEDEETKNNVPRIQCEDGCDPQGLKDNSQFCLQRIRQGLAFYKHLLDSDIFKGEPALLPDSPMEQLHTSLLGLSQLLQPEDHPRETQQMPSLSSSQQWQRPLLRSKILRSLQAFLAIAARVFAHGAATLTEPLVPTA
T4 sequence (looked up) 2: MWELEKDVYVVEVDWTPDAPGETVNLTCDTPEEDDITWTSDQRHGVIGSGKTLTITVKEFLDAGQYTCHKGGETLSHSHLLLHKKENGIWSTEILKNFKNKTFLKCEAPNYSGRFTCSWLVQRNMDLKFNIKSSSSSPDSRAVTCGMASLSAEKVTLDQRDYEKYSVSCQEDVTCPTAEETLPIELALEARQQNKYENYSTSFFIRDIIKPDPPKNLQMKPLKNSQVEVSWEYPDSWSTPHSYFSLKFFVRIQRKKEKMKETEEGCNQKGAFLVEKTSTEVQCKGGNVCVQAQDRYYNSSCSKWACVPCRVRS
Procedure: as §1, §2

[5] = target: T5, cynomolgus monkey IL-23 (cynomolgus monkey); test: SPR (BIAcore 2000), Antibody I captured on Protein A, IL-23 injected, 37 °C, n=2
T5 construct: Construct not described
Procedure: as §1
(§3) The on-rate (kₒₙ) and off-rate (koff) for each antigen are evaluated using a 1:1 binding with mass transfer model. The affinity (KD) is calculated from the binding kinetics according to the relationship: KD=koff/kₒₙ.

[6] = target: T6, rabbit IL-23 (rabbit); test: as above
T6 construct: Construct not described
Procedure: as §1, §3

[7] = target: T7, human IL-23 (human, UniProt P29460 23-328); test: as above
T7 construct: Disulfide-linked heterodimer of p19 and p40; also called Recombinant human IL-23; human interleukin-23
T7 sequence 1: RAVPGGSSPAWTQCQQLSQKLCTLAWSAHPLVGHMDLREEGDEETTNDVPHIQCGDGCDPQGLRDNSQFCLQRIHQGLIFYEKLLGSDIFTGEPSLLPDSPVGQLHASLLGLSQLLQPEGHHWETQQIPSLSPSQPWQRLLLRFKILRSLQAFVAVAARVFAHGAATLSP
T7 sequence 2: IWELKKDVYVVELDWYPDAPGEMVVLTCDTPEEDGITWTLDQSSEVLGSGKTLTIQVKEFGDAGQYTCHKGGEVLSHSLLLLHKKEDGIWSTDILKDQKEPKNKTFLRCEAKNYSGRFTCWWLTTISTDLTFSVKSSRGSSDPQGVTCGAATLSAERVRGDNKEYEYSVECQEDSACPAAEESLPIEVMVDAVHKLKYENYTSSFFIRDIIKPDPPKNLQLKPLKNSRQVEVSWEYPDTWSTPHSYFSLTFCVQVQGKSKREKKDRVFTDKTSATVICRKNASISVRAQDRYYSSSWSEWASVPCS
Procedure: as §1, §3

[8] = target: T5, cynomolgus monkey IL-23; test: cell-based or functional assay
[9] = target: T7, human IL-23; test: cell-based or functional assay
[10] = target: T7, human IL-23; test: cell-based or functional assay; remark: listed apart in the source

- binding result [1]: no binding (tested: 500 nM)
- binding result [2]: no binding (tested: 833 nM)
- binding result [3]: no binding (tested: 333 nM)
- binding result [4]: no binding (tested: 333 nM)
- Kd [5]: 0.055 nM
- koff [5]: 7e-05 s⁻¹
- kon [5]: 1.28e+06 M⁻¹ s⁻¹
- Kd [6]: 53 nM
- koff [6]: 0.00479 s⁻¹
- kon [6]: 90000 M⁻¹ s⁻¹
- Kd [7]: 0.021 nM
- koff [7]: 5.2e-05 s⁻¹
- kon [7]: 2.43e+06 M⁻¹ s⁻¹
- IC50 (pM), in vitro IL-23 neutralization assay, IL-17 production by murine splenocytes [8]: 110 pM and 130 pM
- IC50 (pM), in vitro IL-23 neutralization assay, IL-17 production by murine splenocytes [9]: 90 pM and 74 pM
- fold induction of murine keratin-16 after human IL-23 injection [10]: 1.23 fold induction
B1: Antibody I (antibody, human IgG4 S228P, kappa, F234A L235A, V domains shown)
VH: QVQLVQSGAEVKKPGSSVKVSCKASGYKFTRYVMHWVRQAPGQGLEWMGYINPYNDGTNYNEKFKGRVTITADKSTSTAYMELSSLRSEDTAVYYCARNWDTGLWGQGTTVTVSS
VL: DIQMTQSPSSLSASVGDRVTITCKASDHILKFLTWYQQKPGKAPKLLIYGATSLETGVPSRFSGSGSGTDFTLTISSLQPEDFATYYCQMYWSTPFTFGGGTKVEIKR
notes: also called IL-23 Antibody
